Results: publication PMC5705213, “Immunoproteasome functions explained by divergence in cleavage specificity and regulation” (eLife, 2017)

Tests used:
Type in all cases: biochemical, human
[1] = substrate: Cc1cc(C(=O)N[C@H](C(=O)N[C@@H](CCC(N)=O)C(=O)N[C@@H](C)C(=O)Nc2ccc3c(CC(N)=O)cc(=O)oc3c2)C(C)C)no1; experiment: Purified proteasome activity assay with fluorogenic substrates, SDS-activated i20S; settings: other: i20S, Michaelis-Menten; pH 8.0
Protocol: (§1) Non-prime-side substrate specificity profiling was performed with a complete, diverse library of 160,000 fluorogenic substrates containing the general structure acetyl-P4-P3-P2-P1-(7-amino-4-carbamoylmethylcourmarin, ACC) ([Harris et al., 2000]). For each sub-library, 10 nM human i20S or c20S underwent SDS pre-activation for 1 hr at room temperature in assay buffer (20 mM Tris, pH 8.0, 0.5 mM EDTA) containing 0.03% SDS. […] Activity assays were carried out over 1 hr following two-fold sample dilution in the same 0.03% SDS-containing buffer that also contained a 250 μM final concentration of PS-SCL substrate pool. Activity was recorded in black 96-well round bottom plates (Costar, COrning, NY) using a BioTek Synergy H4 Hybrid Multi-Mode Microplate Reader set to λex = 380 nm and λem = 460 nm (gain = 63). Initial velocity in relative fluorescence units per second (RFU/s) was calculated using a linear fit of the progress curves with Gen5 software v.2.03.
(§2) Activity assays with individual fluorogenic substrates were carried out as described above for the PS-SCL assays using final concentrations of 5 nM SDS-activated i20S or c20S and 10 μM substrate except where noted below. The commercial substrates Suc-LLVY-AMC, Ac-WLA-AMC (Boston Biochem, S-330), and Ac-ANW-AMC (Boston Biochem, S-320) were used as supplied. To convert cleaved substrate RFU to free AMC or ACC dye concentration, calibration curves were prepared through total enzymatic hydrolysis of ACC- or AMC-containing peptides that had been quantified through amino acid analysis (Alphalyse, Inc.). Substrate selectivity of PA28α- and SDS-activated 20S proteasomes was compared following 1 hr pre-incubation at room temperature either in the presence of 0.03% SDS or with 12 molar equivalents of PA28α activator in the absence of SDS. For substrate selectivity assays with mixed, purified proteasomes, i20S and c20S underwent individual SDS pre-activation prior to assaying with 5 nM final concentration of pooled 20S. Proteasome ratio assays were performed with 10 μM EWFW-ACC, 30 μM iso-VQA-ACC, and 30 μM Suc-LLVY-AMC. All activity measurements were recorded on the BioTek plate reader described above using λex = 380 nm and λem = 460 nm (gain = 63) for ACC substrates and Suc-LLVY-AMC; 345 nm and λem = 445 nm (gain = 63) for Ac-WLA-AMC and Ac-ANW-AMC; and λex = 328 nm and λem = 393 nm (gain = 75) for the GEWHWPS IQ substrate. Michaelis-Menten calculations were performed using a non-linear fit in Prism v.6.0.

[2] = substrate: NC(=O)Cc1cc(=O)oc2cc(NC(=O)[C@H](Cc3c[nH]c4ccccc34)NC(=O)[C@H](Cc3ccccc3)NC(=O)[C@H](Cc3c[nH]c4ccccc34)NC(=O)[C@@H](N)CCC(=O)O)ccc12; experiment: as above; settings: other: i20S, Michaelis-Menten; pH 8.0
Protocol: as §1, §2

[3] = substrate: Cc1cc(=O)oc2cc(NC(=O)[C@H](Cc3ccc(O)cc3)NC(=O)[C@@H](NC(=O)[C@H](CC(C)C)NC(=O)[C@H](CC(C)C)NC(=O)CCC(=O)O)C(C)C)ccc12; experiment: as above; settings: other: Michaelis-Menten plot, commercial substrate; pH 8.0
Protocol: as §1, §2

[4] = substrate: CC(=O)N[C@@H](C)C(=O)N[C@@H](CC(N)=O)C(=O)N[C@@H](Cc1c[nH]c2ccccc12)C(=O)Nc1ccc2c(C)cc(=O)oc2c1; experiment: as above; settings: other: i20S, Michaelis-Menten; pH 8.0
Protocol: as §1, §2

[5] = substrate: NC(=O)Cc1cc(=O)oc2cc(NC(=O)[C@H](Cc3c[nH]c4ccccc34)NC(=O)[C@H](Cc3c[nH]cn3)NC(=O)[C@H](Cc3c[nH]c4ccccc34)NC(=O)[C@@H](N)CCC(=O)O)ccc12; experiment: as above; settings: other: i20S, Michaelis-Menten; pH 8.0
Protocol: as §1, §2

[6] = substrate: Cc1cc(C(=O)N[C@H](C(=O)N[C@@H](CCC(N)=O)C(=O)N[C@@H](C)C(=O)Nc2ccc3c(CC(N)=O)cc(=O)oc3c2)C(C)C)no1; experiment: Purified proteasome activity assay with fluorogenic substrates, SDS-activated c20S; settings: other: c20S, Michaelis-Menten; pH 8.0
Protocol: as §1, §2

[7] = substrate: NC(=O)Cc1cc(=O)oc2cc(NC(=O)[C@H](Cc3c[nH]c4ccccc34)NC(=O)[C@H](Cc3ccccc3)NC(=O)[C@H](Cc3c[nH]c4ccccc34)NC(=O)[C@@H](N)CCC(=O)O)ccc12; experiment: as above; settings: other: c20S, Michaelis-Menten; pH 8.0
Protocol: as §1, §2

[8] = substrate: Cc1cc(=O)oc2cc(NC(=O)[C@H](Cc3ccc(O)cc3)NC(=O)[C@@H](NC(=O)[C@H](CC(C)C)NC(=O)[C@H](CC(C)C)NC(=O)CCC(=O)O)C(C)C)ccc12; experiment: as above; settings: other: Michaelis-Menten plot, commercial substrate; pH 8.0
Protocol: as §1, §2

[9] = substrate: CC(=O)N[C@@H](C)C(=O)N[C@@H](CC(N)=O)C(=O)N[C@@H](Cc1c[nH]c2ccccc12)C(=O)Nc1ccc2c(C)cc(=O)oc2c1; experiment: as above; settings: other: c20S, Michaelis-Menten; pH 8.0
Protocol: as §1, §2

[10] = substrate: NC(=O)Cc1cc(=O)oc2cc(NC(=O)[C@H](Cc3c[nH]c4ccccc34)NC(=O)[C@H](Cc3c[nH]cn3)NC(=O)[C@H](Cc3c[nH]c4ccccc34)NC(=O)[C@@H](N)CCC(=O)O)ccc12; experiment: as above; settings: other: c20S, Michaelis-Menten; pH 8.0
Protocol: as §1, §2

B1: human immunoproteasome core particle (i20S) (Homo sapiens) (protein)
chain 1: TTTLAFKFQHGVIAAVDSRASAGSYISALRVNKVIEINPYLLGTMSGCAADCQYWERLLAKECRLYYLRNGERISVSAASKLLSNMMCQYRGMGLSMGSMICGWDKKGPGLYYVDEHGTRLSGNMFSTGSGNTYAYGVMDSGYRPNLSPEEAYDLGRRAIAYATHRDSYSGGVVNMYHMKEDGWVKVESTDVSDLLHQYREANQ
chain 2: RFSPYVFNGGTILAIAGEDFAIVASDTRLSEGFSIHTRDSPKCYKLTDKTVIGCSGFHGDCLTLTKIIEARLKMYKHSNNKAMTTGAIAAMLSTILYSRRFFPYYVYNIIGGLDEEGKGAVYSFDPVGSYQRDSFKAGGSASAMLQPLLDNQVGFKNMQNVEHVPLSLDRAMRLVKDVFISAAERDVYTGDALRICIVTKEGIREETVSLRKD
notes: purchased Boston Biochem E-370
[1]
  Km: 43 µM
  kcat: 0.65 s⁻¹
  kcat/Km: 15000 M⁻¹ s⁻¹
[2]
  Km: 7.0 µM
  kcat: 4.8 s⁻¹
  kcat/Km: 690000 M⁻¹ s⁻¹
[3]
  Km: 98.6 µM
[4]
  Km: 20 µM
  kcat: 1.2 s⁻¹
  kcat/Km: 58000 M⁻¹ s⁻¹
[5]
  Km: 52 µM
  kcat: 6.8 s⁻¹
  kcat/Km: 130000 M⁻¹ s⁻¹

B2: constitutive proteasome core particle (c20S) (Homo sapiens) (protein)
chain 1: TTTLAFKFRHGVIVAADSRATAGAYIASQTVKKVIEINPYLLGTMAGGAADCSFWERLLARQCRIYELRNKERISVAAASKLLANMVYQYKGMGLSMGTMICGWDKRGPGLYYVDSEGNRISGATFSVGSGSVYAYGVMDRGYSYDLEVEQAYDLARRAIYQATYRDAYSGGAVNLYHVREDGWIRVSSDNVADLHEKYSGSTP
chain 2: RFSPYVFNGGTILAIAGEDFAIVASDTRLSEGFSIHTRDSPKCYKLTDKTVIGCSGFHGDCLTLTKIIEARLKMYKHSNNKAMTTGAIAAMLSTILYSRRFFPYYVYNIIGGLDEEGKGAVYSFDPVGSYQRDSFKAGGSASAMLQPLLDNQVGFKNMQNVEHVPLSLDRAMRLVKDVFISAAERDVYTGDALRICIVTKEGIREETVSLRKD
notes: purchased Boston Biochem E-360
[6]
  Km: 51 µM
  kcat: 2.3 s⁻¹
  kcat/Km: 45000 M⁻¹ s⁻¹
[7]
  Km: 1.8 µM
  kcat: 0.31 s⁻¹
  kcat/Km: 170000 M⁻¹ s⁻¹
[8]
  Km: 65.7 µM
[9]
  Km: 9.8 µM
  kcat: 0.1 s⁻¹
  kcat/Km: 10000 M⁻¹ s⁻¹
[10]
  Km: 73 µM
  kcat: 1.1 s⁻¹
  kcat/Km: 15000 M⁻¹ s⁻¹
